Columns and labels:
Assay in all cases: co-IP
[1] = target: Plk4-EGFP A15 (Drosophila) (UniProt O97143)
[2] = target: Plk4-EGFP A16 (Drosophila) (UniProt O97143)
[3] = target: Plk4-EGFP A17 (Drosophila) (UniProt O97143)
[4] = target: Plk4-EGFP A18 (Drosophila) (UniProt O97143)
[5] = target: Plk4-EGFP A19 (Drosophila) (UniProt O97143)
[6] = target: Plk4-EGFP A20 (Drosophila) (UniProt O97143)
[7] = target: Plk4-EGFP A26 (Drosophila) (UniProt O97143)

further fold decrease of Slimb binding (beyond A14) [1]: 2 fold | further fold decrease of Slimb binding (beyond A14) [2]: 2 fold | further fold decrease of Slimb binding (beyond A14) [3]: 2 fold | further fold decrease of Slimb binding (beyond A14) [4]: 2 fold | further fold decrease of Slimb binding (beyond A14) [5]: 2 fold | further fold decrease of Slimb binding (beyond A14) [6]: 2 fold | fold reduction in the amount of associated Slimb [7]: 5 fold
Substance: Slimb (F-box protein of the SCF ubiquitin ligase) (natural protein)
